Laboratory results taken from the DeepSol protein solubility set.

Assay: soluble on expression in E. coli; label from the status in PepcDB or PDB records

| Sequence | soluble on expression in E. coli |
| --- | --- |
| MSLETRARNSTRPASGLIDWEQARQAALRLSQWEQAPVDNRAFRREQYARMVALSEPLIADYLGVRLPEPVSRIFVFDRREWLEANIVSFSQLFRPIEEMYEKNGGGRGALGVLMNDVSSKLLGVQIGGLLGYLAQRVLGQYDLSLLSAEATGGSLYFVEPNIARVQQQLGLSDEDFRLWITLHEMTHAFEFEAYPWVRTYFRELLEQNFALVSGQMLSSGNSLVDMLMRLLQGIGSGQHWIETVLTPEQRAVFDRIQALMSLIEGYGNHVMNAVGRRLLPSFNQIEQQIAQRQRQRTMLDQMVFRLTGLDLKLAQYQQGEAFVNAVVAARGIQFASRVWERPENLPSMDEIRNPGQWIVRMDREGHHHHHH | soluble |
| MSLEVEVYRDPLSGFKDNKKSAPVKLNDEQQFALNQITAAIDKRKAETFLLEGITGSGKTEVYLHAISKALEQGRNALMLVPEISLTPQMVRQVKSRFGQAVAVLHSALSEGEKYDEWRRIRRGETRVVVGARSAVFAPLDNIGLIVIDEEHESSYKQETDPRYNARDVAIWRSKYHHCPLVLGSATPSLGSRARAQKNVYKLLRLTKRANNKKLPKVNLIDLKHVQFAGGQFDLSVNLVDAIKKRLDNKEQVILMLNRRGFANFMLCRECGFVLKCPNCDVSLNLHKDTNSMQCHYCGHTERVPSRCPNCQSSKIRFLGTGTQKVQEELEELLPGARILRMDVDTTRKKGSYKRILDSFGNHEADILLGTQMIAKGLDFPNVTLVGVINADTGLWLSDYNASEKTFELLTQVAGRAGRANKEGEVLIQTYNPEHYAIQLAQTQNYERFYGYEMNVRHAGNYPPYFFTVLISIAAKKEQNAAREAFRIKRYLSQHLHEEMIILGPTPSAISRVKNQYYYQILVKYKKEPNIKELLHHIQDSAQEAKKYGLNVFIDNEPEKIMEGHHHHHH | not soluble |
| MSLEVIKHDGPGRLGVIRLEPPVQTPALAGVDFTISPFNSYFNPKEYHDYDFNLAPSIPLSYYTPDEVIEKALKRIETVDYSKFNTFYFPALKRDKYYPRFVELIEENDFDAIYIGNSKVMIKDYRGFVATLRILREKFPNAVLITDLEPFFYPLAVYLGVDAFDVRSLKIYSYEGLGFTPFSPVIWDRPNDPIEFAREMIKIIKIAIQEGKLRYLVENFLPTVMNVGILRIADKEHGDYLEKYTPVHDKTVVFISEHSISRPEVFRWRKRIEERFEPPKGIDLLLIFPCSAKKPYSRSRSHMMYRKVMKEALGEKVHRVHELVVTSPYGVVPREWEWLAKYDIVVTGHWSESEVRFAGELLAQTIEKYPDIPIVAHVEGGYREAVKYAMELVNRDVIFTAVGSSTISKESLDKLKKTLKEFDLRDEGHHHHHH | not soluble |
| MSLEVPLLEVLLYTDGSVTRILERFFEEVTIDPLETRKLKVEGREARLLGVPDGDTVYVRRVVIKVDGRPAILATSLARPDNLPGRLRRLVLQSRKPLGKMIEELRLETRREILRVEEARPSPEDEEILDVSVPKIPWREYLVYHRRTPMLLIRERFNPEVLGREGEGHHHHHH | not soluble |
| MSLFFGFTSCLDICPSTLTILGQAEKHRENLPETQRPQVLFVSINPDRDSPLRLSGYARAFHKNILTTTADTPALQRFATALGLRFRKVPGKSYAENPLDDTMDHPTAIVVLDPQGHHVGMIHPPFNAEEIPTDLQKLTKEITEGHHHHHH | not soluble |
| MSLGDEGWQTVIGLEIHAQIKTGKKLFSKASTSYGHVPNTNVDVHDAAFPGTLPVLDINAIRLSIMTALALNCQINPRSTFDRKHYFYHDIPASYQITQHYNPLAWNGHLEIREGDNGSKRTFNIGIKQLQVEQDTAKSQTVGDAVLVDLNRAGTGLMEIVTDPDMRSPEEAGAFVKKLQGLLRRVGSADGDMEKGNLRVDVNVSVHRPGMPFGTRCEIKNINSVRFLQAAIESERQRHIAHYCTSPLEPLAQETRGFNELTLQTYSLRSKEEATDYRYMPDHNLPAIIIDDGYLDSLWKNLPEMPWQSVERLVKTYGVTKRDAETLLGLDEYSAQGIAYFEEVVEQDKKIAKKATNWIAHELLGQLGKAIRPWTPTIVPAPLMHELVTAVESREITGTTGKAIVKHFVSLPESASLPPSFAELLAELGLTPSAASVEDLTETCKKAMNNQPKAVADFKKGNEKVVMRLVGEVMKLSGGKADAMKAKDILLDLLKDEGHHHHHH | not soluble |
| MSLGELNVATVTRRPEILLVDSQEVILQRLQQLLSPLPYTLHFARDATQALQLLASREVDLVISAAHLPQMDGPTLLARIHQQYPSTTRILLTGDPDLKLIAKAINEGEIYRYLSKPWDDQELLLALRQALEHQHSERERLRLQDLAQQQNAELKALNTLLEKRVAARTSELQQTADMLDLAYEELKPSYATGAELFSLLVNQRLPADKQTNRRIIELVRAYCKVQGIDPGAQRDLAMAAALHNIGKLSWSDSMMTSPADLLHHHQRERYRAYPAQSESLLMTLEPVQDAARLIRHHQEHWDGSGFPDHLKGDAIPLGSRLLKLAVDFIELQCGLILERHMNSDEALVFIRKYAGRLYDPDLVEGFIQVCAVYLSDVTLGDPSVKVLSTRELAAGMILARNLNADNGMLLLNAGKVLNLPLVDKLIAFETMEGARYSVFVKLPQEQQARAEGHHHHHH | not soluble |
| MSLGEQTTISDSKGLFHKEFPYVIPPVYRKVLDEYLVELNLLSNQSNFKIDTIFSYGLIISFERFTVGYEPDSHISKILESLCNSCNIDIKAIKEYSNNIKKLINEKGIKEIINILTAEIKKSVGGIALSNQSGKDKYYSRLHAIGIYELISNINEDKKEGDDKEIISECVEALGFSKDRVEKDINQYKNSMEKIKEMMELIKLTVEETKRKAKLNEGHHHHHH | soluble |
| MSLGGELSLQIINKNPYKLYMDIKGFGFKTVDSIALSMGIEPDSNFRTKAAILYCLEQKEQNGDTYAFIEDIHQQVEKLLNIKINDIKNYLDKEYYYFDVLRLAKRTTWETEKDISVRLKEKINNSQKLFTNNVIHLIPEIERILRIKYDDKQKELFYKINENNILVLTGFAGTGKSSVLNGLLNLFDKKNITYKLMSPTAKAAKRMEECTGKKASTIHRALGLAEGKFLVNEKNPFAEDVIIIDETSMVDIYLFLAVLKGIKNTTKLLCLGDYGQLESISAGNVLFDMIQGGIPCVKLEKIFRQKEDSSLLNVITNIRNGDNPLKNTHKTYLELGRDCKFWLGKKEQTLSRVLLCYKECLKHFSREDIMVLCPMKKGNSGVNKLNQELQKIANSQNTEELKLKDCAYKKEDLVMHIKNDYNANIFSEDCKDTIAKGIFNGDAGKIEKIDLENQKLYVSYDSGIVEYDNSNLNELMLSYALTIHKVQGSQSKVVIVALDMSHYKMLKRSLLYTAASRCVELLIFICDPKAFSIALNNNQVTHKNTFLGELLKISEGHHHHHH | soluble |
| MSLGGSAMYHAQLGREYHEKALKYRSLAMRSLAHSGTSHSLDLHGATVREAKTIVRERVAAWWAKEADTSPNSIRPFVIVTGRGNHSIGLEARLLPAIVRLLQQDHWRFDAEHGQITVYGINRHSKEGHHHHHH | soluble |
| MSLGNPTSINPGGSSTTTGMAFNEENGFQVSDYAGQPEGPNLVYIEGGRTVLGSFEEDLMKNGDNVERTVTVASFYMDETEIANIHWLEYLFYVQRDSSQEFYESALPDTTVWASELAYNDPYVDHYFRYPGFRYFPVVGVNWIQANDYCIWRTTVVNNQLAQNAGIDVPEGGGRIPLESGVVLPNYRLPSEAEWEYAAQALIGNQWLDENQTHKRLYPWDGHALRNPYGKQMGMFLANFKRGRGDYAGIAGKLNDGAMITTYIYEFPPNDFGLYCMAGNVNEWVYDVYRPLSFQTFDDLNPLRRNGFLDEEKGYDKAGFQSLVDDHVRVYKGGSWKDVAYWMSPGTRRYLAEDSCTATIGFRCAMIQAGTEGHHHHHH | soluble |
| MSLGPMRDLTWGQINFIHTTDTHGWIGGHLQEPQYSADWGDYISFTKHMRDQADKRGSDLLVIDTGDRIEGNGLYDASTPKGLFQYDIYAEADVDIMSTGNHELYKAYSADMEHNTTVPNYKNSYLASNLDYISFETGDRVPQAPRYKKFKTKNQGLNIVAFGFLFDFTGNANNTVVQPVEDTIKEDWFQEAIHEKPDLFVVIGHVGLRMEEFKVIYTAIRKQNWHIPIAFFGGHAHVRDTVQYDSKALAIASGRYFETIGWMSIDGIKKGGAKDVEAAASPTEGHHHHHH | soluble |
| MSLGQTTLACSFRSLTNPYYTAFNKGAQSFAKSVGLPYVPLTTEGSSEKGIADIRALLQKTGGNLVLNVDPNDSADARVIVEACSKAGAYVTTIWNKPKDLHPWDYNPNYVAHLSYDGVAYGEETATQLFKSMGGKGGVVALGGIFSNVPAIERKAGLDAALKKFPGIQLLDFQVADWNSQKAFPIMQAWMTRFNSKIKGVWAANDDMALGAIEALRAEGLAGQIPVTGMDGTQPGLVAIKSGELVASVDWDPFWLGGIGLSMGLQAKEKKIDLATLPKDRRESFCTATFVTKTNVQDVIARAASPKAEWNNLYARVAGPVVYREGHHHHHH | soluble |
| MSLGQVFYYQPEQVHLSFGESPLEIVVTWSTMTATNESIVEYGIGGLILSATGTETKFVDGGPAKRTQYIHRVVLRDLQPSSRYEYHCGSRWGWSAEFYFHTTPAGTDWSPSLAIFGDMGNENAQSMARLQEDTQRHMYDAILHVGDFAYDMNTDDALVGDQFMNQIQSIAAYTPYMVCAGNHEEKYNFSNYRARFSMPGGTENIMYSFNLGPVHFIGFSTEVYYFMNYGLKPLVKQYEWLRRDLEEANRPENRKLRPWIVTYGHRPMYCSNDNDNDCTHSETLVRVGLPFMHWFGLEDLFYEHGVDVEIWAHEHSYERLFPIYDYKVYNGSYEEPYRNPRAPVHLVTGSAGCKEGREPFINKIPTWSAIHSRDYGYTRMKAINGSHLYFEQISVDKEGAVIDSFTIIKDEGHHHHHH | soluble |
| MSLGQVGVGRVLQRYIILKGRNSEHLFVAAESLIAIDRLPAAIITRLTQTNDPLGEVMAASHIETFKEEAKVWVGDLPGWLALHGYQNSRKRAVARRYRVISGGQPIMVVTEHFLRSVFRDEGHHHHHH | not soluble |
| MSLGSGHMIGVDVGETRVRVELFDLSLAELARTERPLAHKGRQAYDVGVIVGHIRDGVAEVLAAAGITAGELLGVGIGVPGIVERSGEGGAVVHGQTIGWDAVPLEHMLRLSGQLPEHVPYFIDNGAKTLGQAEMWFGAGRGAHNAVVVLFGSGVGACVVTDEVEHGRAVEWGHLTVRVQGRRCRCGALGCLEAYAGAEALLARWQEAGGQPPYDTDEETALTAMLAAAYPEDGRAPDPVAAAVLAETAEYLGAGLSDLINLFQPERILVGGWAGLQLGSRFLESVRTHALAYALRYPAGRVGIELGRLGPDAVTVGAAILPLADFFAHGGRRAEGHHHHHH | soluble |
| MSLGTLKLFNIGNMVTYSMNESSMISSKGMEILISDGKIIEIGPKVGDADQLFDCENKLVTPGFVDCHTHPVFLDGRENEFEMRLKGFSYEEIANEGGGIKNSVKSVRNSSEVELYNRVISRMDKFLKLGTTTIEAKSGYGLDINSELKSLKVIHEVNLAHQIDILPTFMGAHAVPNEYADDIDSYVDLICDSMIPQVAEQGIAIFNDVFCEKGYFNLKQSERILKKGLDYGLLPRIHSDEFNNLGASKLAGKLNLISADHLMKIEKDDIEIMADSNTKAVLLPGTTFFLGHSNYAPYHKLKEAGIEVAIASDYNPEGHHHHHH | soluble |
| MSLGTQEDVLSLISGGFDSGVSSYLHIKRGSKVHYCFFNLGGPAHEIGVKQTAYYLWQKYGSSAKVRFIAIDFAPVVAEILEKIDDGQMGVVLKRMFMRTAGMVAEKFGIQALVTGEALGQVSSQTLTNLRHIDNVTDTLILRPLINWDKEDIIRLAREIGTEDFAKTMPEFCGVISKSPTVKAVKEKLEEEEAKFDFALLDQVVYNARQIDIRDIGKESLEKAPEVELVNSAEEGNAVVLDIRSPDEEDESPLEIVGVEVKHLPFYKLATQFGDLDQSKTYLLYCSRGVMSRLQALYLQEQGFNNVKVYREGHHHHHH | not soluble |
